These results are taken from patent US7205387B2, “Recombinant polypeptide useful for neurotrophin receptor mediated gene delivery and as neurotrophin agonist” (Agency for Science, Technology and Research, priority 2003, dated 2007).

Data set [1] deals with dorsal root ganglia (DRG). The data set can be described thus: Gene delivery in vivo, intrathecal injection, dorsal root ganglia. More on the design: species or system rat. To be noted: 3 days. The source says: (§1) In vivo gene delivery was studied by intrathecal injections of adult Wistar rats (8 weeks old, 180–200 g). The rats were anesthetized by intraperitoneal injection of sodium pentobarbital. After the skin around L4–L5 was exposed, the gene delivery complex was slowly injected into the subarachnoid space using a syringe. A slight tail movement accompanied correct placement of the needle. After injection, the syringe was left in place for five minutes to limit diffusion caused by backflow pressure. Multiple injections were sometimes required to deliver the full volume of the complex. After injection, the skin was closed with surgical clips and the animals were kept warm until they recovered. […] The lumbar segment of the spinal cord and the lumbar dorsal root ganglia were excised. The tissues were homogenized in 100–400 μl of Reporter Lysis Buffer (Promega) depending on size and subjected to three freeze-thaw cycles. The lysates were centrifuged at 14000 g for 5 min at 4° C. The supernatant was tested for luciferase activity using the Luciferase Assay System (Promega) in a single-tube luminometer (Berthold Lumat LB 9507). The readings were normalized by the total protein content of the lysates, as measured by the DC Protein assay (Bio-Rad).

Data set [2] has as its system PC12 (TrkA and p75^NTR positive) cells. The data set can be described thus: Gene delivery in vitro (pCAGluc luciferase reporter), PC12 cells. Type of data set: cell-based, rat. The method, then: A PC12 (rat pheochromocytoma) cell line was obtained from ATCC (American Type Culture Collection, Manassas, Va., USA) and cultured in RPMI-1640 medium supplemented with 10% fetal bovine serum (FBS) and 5% horse serum. PC12 cells are known to express TrkA and p75^NTR receptors. A COS7 (African green monkey kidney fibroblast) cell line was obtained from ATCC and cultured in Dulbecco's modified Eagle's medium (DMEM) supplemented with 10% fetal bovine serum, 50 U/ml penicillin, and 50 μg/ml streptomycin. The cells were maintained in a 37° C., 5% CO2, humidified incubator.
To determine the transfection efficiencies of our nucleic acid delivery systems, we employ a reporter plasmid, pCAGluc (a gift from Yoshiharu Matsuura, National Institute of Infectious Diseases, Tokyo, Japan), encoding firefly luciferase under the control of the composite promoter, CAG. CAG comprises the chicken β-actin promoter and the cytomegalovirus immediate early enhancer.
TrkA-targeting gene delivery complexes were tested for transfection efficiency in vitro in PC12 (TrkA and p75^NTR positive) cells and COS7 (neurotrophin receptor negative) cells. The cells were grown to 50–70% confluency in microplate wells (24-, 48-, or 96-well plates). The gene delivery complexes were prepared according to specifications presented for each example. Transfection was accomplished by replacing the serum-enriched medium with half the usual volume of reduced-serum medium, Opti-MEM (Invitrogen), containing the gene delivery complexes. Where specifically mentioned, 100 μM of chloroquine was also added to help the complexes escape from endosomes. After four hours of incubation, the cells were restored to the normal medium volume and serum concentration, either by topping up with medium containing twice the usual serum concentration (RPMI-1640 with 20% FBS and 10% horse serum for PC12) or by completely replacing the medium.
One to two days after transfection, the cell culture medium was removed and the cells were rinsed in phosphate-buffered saline (PBS). Enough Reporter Lysis Buffer (Promega, Wisconsin, Md., USA) to cover the bottom surface was added to each well (50 μl/well for 48-well plates). After one freeze-thaw cycle, the lysates were tested for luciferase activity using the Luciferase Assay System (Promega) and a single-tube luminometer (Berthold Lumat L B 9507, Bad Wildbad, Germany). The total protein concentration of each lysate was determined using the DC Protein assay (Bio-Rad, Hercules, Calif., USA). The results were expressed in relative light units (RLU) per milligram of total protein.
A general note: A reporter such as luciferase makes a cellular process visible.

In data set [3] the test system is lumbar segment of the spinal cord. The data set can be described thus: Gene delivery in vivo, intrathecal injection, lumbar spinal cord. More on the design: species or system rat. To be noted: 3 μg pCAGluc, PEI600 N/P 5, peptide N/P 5, intralumbar, 3 days.
Text: as §1

The next data set relates to PC12 cells. The data set can be described thus: PC12 cell survival assay (MTT, serum-free medium). To be noted: 8 μM, deprived of serum and NGF for 3 days. Type of data set: cell-based, rat. The method, then: Undifferentiated or differentiated (by 6-day treatment with 10 ng/ml NGF) PC12 cells seeded onto collagen-coated 96-well plates were exposed to serum-free RPMI-1640 medium containing either NGF or various concentrations of chimeric polypeptides. After 3–4 days of incubation, cell viability was measured by the standard MTT assay. Cell survival was expressed as a percentage of the viability of the NGF-treated control.

Data set [4] deals with plasmid DNA. The data set can be described thus: Atomic force microscopy of polypeptide-DNA complexes. The format is physicochemical. The method, then: DNA samples, polypeptide-DNA complexes, and polypeptide-polycation-DNA complexes were prepared with a DNA concentration of 0.02 mg/ml. The samples were diluted ten-fold in HPLC-grade water, and 20 μl of each sample was deposited onto mica discs. After one minute, the mica discs were washed with HPLC-grade water and dried in a stream of filtered air. Images were acquired on a Nanoscope IIIa atomic force microscope (Digital Instruments, Santa Barbara, Calif., USA) operating in tapping mode in air, using Nanoprobe Silicon tips (Digital Instruments).

In data set [5] the test system is plasmid DNA. Description: DNA retardation assay (agarose gel electrophoresis). Type of data set: binding. The method, then:
This assay qualitatively assesses the ability of a polypeptide or polycation to bind to DNA and thus to retard its migration (by decreasing its charge/mass ratio) through an agarose gel under electrophoresis. For a range of N/P ratios, polypeptide was added to 0.1 μg of plasmid DNA made up to 20 μl with either HEPES-buffered saline (HBS, 150 mM NaCl, 29 mM HEPES, pH 7.3) or 5% glucose. The mixtures were vortexed and incubated at room temperature for 30 minutes before being subjected to electrophoresis in a 0.8–1.0% Tris-borate-EDTA agarose gel stained with ethidium bromide for visualization under ultraviolet light.

Bridge positions count the residues as written; N and C are the ends. Ends that are not written are not given here.

For the molecule “CTTTHTFVKALTMDGKQAAWRFIRIDTACKKKKKKKKKK (CTTTHTFVKALTMDGKQAAWRFIRIDTACKKKKKKKKKK; disulfide 1-29) [NL4-10K]”, the “luciferase gene expression in DRG relative to PEI600/pCAGluc/10K” value in data set [1] (3 μg pCAGluc, PEI600 N/P 5, peptide N/P 5, intralumbar) was “twice as high”. For the same molecule, in data set [2] (0.3 nmol peptide with 1 μg pCAGluc, 100 μM chloroquine), the “gene delivery at N/P ratio of 1 (in words)” value is “modest gene delivery”. Besides, the “transfection efficiency relative to a mixture of NL4 and 10K peptides” value in data set [2] (1.5 nmol peptide per μg DNA (N/P ratio of 5), 100 μM chloroquine, 24 h) worked out at 110 times. Moreover, in data set [2] (1 μg pCAGluc/well, 100 μM chloroquine), the “dose-response of transfection efficiency with increasing amount of peptide” value is given as “increased markedly”. Also, the “transfection in spinal cord near the lumbar injection site relative to 10K control” value in data set [3] is “decreased relative to the 10K control”.

B1: SPKR4NL1-2: chimeric protein: (SPKR)4 DNA-binding domain, α-helical linker, targeting domain with loops 1 and 2 of NGF (aa 17–67), His10 tag (protein)
chain: MGHHHHHHHHHHSSGHIEGRHMSPKRSPKRSPKRSPKRGGTYLSEDELKAAEAAFKRHNPTGSCSVSVWVGDKTTATDIKGKEVMVLGEVNINNSVFKQYFFETKCRDPNPVDSG
modifications: SPKR4NL1-2
On to B1, for which the “transgene expression in lumbar DRG relative to PEI600/pCAGluc control” value in data set [1] (4 μg pCAGluc, PEI600 N/P 5, 32 nmol peptide, intrathecal) was “nine times”. Further, in the data set on PC12 cells, the “PC12 viability as % of maximum NGF-promoted survival rate” value came out at 80%. In the data set on plasmid DNA [4] (PEI600 (N/P ratio of 5) added), the “DNA condensation seen by atomic force microscopy, with PEI600” value is “compact nanoparticles are formed”. Moreover, the “DNA condensation seen by atomic force microscopy, peptide alone” value in the data set with plasmid DNA [4] (peptide and plasmid DNA without polycation) is “only partially condenses plasmid DNA”. Also, in data set [2] (no polycation), the “transfection efficiency of complexes of polypeptide and DNA alone” value is recorded as “relatively weak transfection efficiencies”. For the same molecule, the “transgene expression relative to PEI600 alone” value in data set [2] (triple complexes with PEI600, highest amount of SPKR4NL1-2 tested) was 5000 fold. For the same molecule, the “transfection efficiency relative to PLL without SPKR4NL1-2” value in data set [2] (triple complexes with poly-L-lysine (MW 1000), chloroquine, optimal amount of SPKR4NL1-2) is given as 1000 times. Moreover, in the data set on plasmid DNA [5], the “DNA binding / retardation of DNA migration (in words)” value is listed as “reduced the mobility of DNA”.
